Measurements taken from patent US8652790B2, “Conformational entropy in molecular recognition” (The Trustees of the University of Pennsylvania, priority 2007, dated 2014).

Key:
[1] = molecular target: T1, calmodulin (Homo sapiens, UniProt P0DP23); test: Change in conformational entropy of calmodulin on binding a target domain, estimated from methyl O^2axis (harmonic oscillator model); conditions: 308 K; for TSconf: absolute conformational entropy of calmodulin in complex; for −TΔSconf: calmodulin upon binding target domain, free CaM reference state; for TSrotamer(fast) / TSrotamer(slow): classical entropy; for TSrotamer(fast): fast rotamer interconversion; for TSrotamer(slow): slowly interconverting conformers; for TSharm: motion within a rotameric well, simple harmonic oscillator
Text: Guided by Karplus and co-workers (see Karplus M et al. (1987)), the present approach connects the change in internal protein dynamics to the conformational entropy, describing the protein as a disjoint multidimensional harmonic well: Sconf=ΣpiS^hi−kBΣpilnpi (2) where S^hi represents the entropy manifested by fast intra-well motion and the second term corresponds to the classical conformational entropy arising from the i=1 . . . N distinct conformations. Here S^hi is obtained from interpretation of local order parameters, which is model-dependent. The present approach finds its modern roots in the work described in Akke, M., Bruschweiler, R. & Palmer, A. G. NMR order parameters and free-energy—an analytical approach and its application to cooperative Ca^2+ binding by calbindin-D(9k). J. Am. Chem. Soc. 115, 9832-9833 (1993), in which a specific motional model (potential energy function) is used to provide a parametric relationship between what is measured, the squared generalized order parameter, and what is sought, a thermodynamic quantity such as the entropy.
A simple harmonic oscillator treatment was selected to make this connection. Li, Z., Raychaudhuri, S. & Wand, A. J. Insights into the local residual entropy of proteins provided by NMR relaxation. Prot. Sci. 5, 2647-2650 (1996). It is important to note that the absolute entropies obtained in this way are very dependent on the details of the potential energy function but that differences in entropy calculated from changes in O^2 are fairly insensitive to the model used. Li, Z, et al. (1996); Lee, A. L. et al. Temperature dependence of the internal dynamics of a calmodulin peptide complex. Biochemistry 41, 13814-13825 (2002). As the reference state for obtaining ΔSconf we use calcium-saturated calmodulin. The second term of equation (2) represents classical entropy arising from the local heterogeneity of side-chain conformers. This can be manifested on a range of timescales. […] This was interpreted as classical entropy with the population of each state (pi) estimated from the intensity of cross peaks. […] Lee, A. L. et al. (2002). This also represents conformational entropy and was estimated using a previously described model. Id.
The change in conformational entropy of calmodulin on binding a target domain was estimated as the sum of three terms: ΔSconf=ΔSharm+ΔSrotamer(fast)+ΔSrotamer(slow). Sharm was obtained from O^2axis parameters using a harmonic oscillator model. Li, Z., Raychaudhuri, S. & Wand, A. J. Insights into the local residual entropy of proteins provided by NMR relaxation. Prot. Sci. 5, 2647-2650 (1996). Free calcium-saturated calmodulin was used as the reference state in site-to-site comparisons. To normalize the unequal number of resolved sites among the complexes, the average methyl order parameter within a complex was assigned to each unresolved site of that complex. A classical entropy term ΔSrotamer(fast) was added to represent minor conformers that are sampled owing to fast rotameric interconversion. Lee, A. L. et al. Temperature dependence of the internal dynamics of a calmodulin peptide complex. Biochemistry 41, 13814-13825 (2002). For the small number of sites having multiple conformations in slow exchange on the NMR chemical shift timescale, an additional classical entropy contribution ΔSrotamer(slow) was calculated on the basis of measured intensities. Populations of the three motional classes were obtained using nonlinear regression of a three gaussian model to the observed order parameter distributions. […]

[2] = molecular target: T1, calmodulin; test: Uncalibrated estimate of conformational entropy of binding from methyl group dynamics of CaM and target domain; parameters: made in house; conditions: for Δ O^2axis Target: O^2axis of 0.101 assumed for the free target domain; for Δ O^2axis CaM: free CaM is the reference state; for ΔSfast^conf: harmonic oscillator plus fast minor rotamer states; for ΔStotal^conf: includes classical term from slow-exchange minor cross peaks; for Normalized Δ O^2axis: normalized to number of amino acids in calmodulin (148) and target domain
Text: Using deuterium NMR relaxation methods, fast motion of the methyl-bearing side-chains of the target domains in the six CaM complexes were examined. Muhandiram, D. R. et al., Measurement of H-2 T-1 and T-1p relaxation-times in uniformly C-13-Labeled and fractionally H-2-labeled proteins in solution. J. Am. Chem. Soc. 117, 11536-11544 (1995).
Initially estimates of the conformational entropy of the target domains to the free energy of binding to CaM was obtained using the simple harmonic oscillator model. Li, Z., Raychaudhuri, S., & Wand, A. J., Insights into the local residual entropy of proteins provided by NMR relaxation. Prot. Sci. 5, 2647-2650 (1996). It is assumed that the dynamics of the free unstructured target domain are uniform and correspond to an O^2axis of 0.1. […] This was estimated using a previously described model. Lee, A. L. et al., Temperature dependence of the internal dynamics of a calmodulin peptide complex. Biochemistry 41, 13814-13825 (2002). […] Such heterogeneity would correspond to conformational entropy contributed by states that are not averaged on the NMR chemical shift timescale.
To compare dynamics in the various complexes, we employ a normalization procedure to account for variation in the number of methyl sites in CaM whose motion could be quantified and to account for the fact that, although fully resolved, the number of residues in the target domains ranges between 20 and 26. A simple average was employed. The apparent change in conformational entropy was then calculated as above. To complete the solution of equation (5), the binding entropies obtained by isothermal titration calorimetry were used and calculated the change in solvent entropy using the known structures of free CaM and the five complexes. Kainosho, M. et al., Optimal isotope labelling for NMR protein structure determinations. Nature 440, 52-57 (2006); Aoyagi, M et al., Structural basis for endothelial nitric oxide synthase binding to calmodulin. The EMBO journal 22, 766-775 (2003); Meador, W. E., Means, A. R., & Quiocho, F. A., Target enzyme recognition by calmodulin: 2.4 A structure of a calmodulin-peptide complex. […] Nat. Struct. Biol. 6, 819-824 (1999); Valentine, K. G. et al., The crystal structure and internal dynamics of calmodulin complexed with the calmodulin binding domain of neuronal nitric oxide synthase. Biochemistry, submitted (2007). The empirically determined relationship between changes in accessible surface area and the entropy of solvent is employed. Hilser, V. J. et al., A statistical thermodynamic model of the protein ensemble. Chem. Rev. 106, 1545-1558 (2006). The change in solvent entropy by assuming an extended fully solvated structure for the dissociated domains (see Methods) was calculated. […] Gaboriaud, C. et al., Hydrophobic cluster analysis: an efficient new way to compare and analyse amino acid sequences. FEBS letters 224, 149-155 (1987). […] The surface area of a sphere of equivalent volume of the side-chains in the putative hydrophobic cluster was used as a basis for the solvent entropy calculation. A further correction for the reduction in conformational entropy of the compact free CaMKKα(p) target domain was also applied (see Methods). […] Marlow, M. S. & Wand, A. J., Conformational dynamics of calmodulin in complex with the calmodulin-dependent kinase kinase alpha calmodulin-binding domain. Biochemistry 45, 8732-8741 (2006).

| TSconf [1] [kcal/mol] | −TΔSconf [1] | TSrotamer(fast) [1] [kcal/mol] | TSrotamer(slow) [1] [kcal/mol] | TSharm [1] [kcal/mol] | Δ O^2axis Target [2] | Δ O^2axis CaM [2] | ΔSfast^conf [2] [kcal/mol] | ΔStotal^conf [2] [kcal/mol] | Normalized Δ O^2axis [2] | Substance |
| --- | --- | --- | --- | --- | --- | --- | --- | --- | --- | --- |
| 168.6 | +63.5 kJ/mol | 23.5 | 2.25 | 142.9 | 0.329 | 0.096 | 48.2921 | 49.7978 | 22.632 | (COOH-FPNGFSRKRLMSKVLIVTTWSPLL [CaMKKα(p)] |
| 168 | +66.0 kJ/mol | 22.6 | 3.59 | 141.8 | 0.555 | 0.107 | 60.2916 | 63.1334 | 28.046 | AKSKWKQAFNATAVVRHMRKLQ (listed as Homo sapiens) [CaMKI(p)] |
| 180 | +15.9 kJ/mol | 26.31 | 5.93 | 147.8 | 0.528 | 0.049 | 41.5545 | 46.7409 | 19.396 | KRRAIGFKKLAEAVKFSAKLMGQ [nNOS(p)] |
| 177.9 | +24.9 kJ/mol | 25.96 | 3.56 | 148.3 | – | – | – | – | – | QTEKMWQRLKGILRSLVKQ [PDE(p)] |

| Substance | TSconf [1] [kcal/mol] | −TΔSconf [1] | TSrotamer(fast) [1] [kcal/mol] | TSrotamer(slow) [1] [kcal/mol] | TSharm [1] [kcal/mol] | Δ O^2axis Target [2] | Δ O^2axis CaM [2] | ΔSfast^conf [2] [kcal/mol] | ΔStotal^conf [2] [kcal/mol] | Normalized Δ O^2axis [2] |
| --- | --- | --- | --- | --- | --- | --- | --- | --- | --- | --- |
| RKKTFKEVANAVKISASLMG [eNOS(p)] | 172.8 | +46.1 kJ/mol | 24.21 | 3.97 | 144.6 | 0.567 | 0.081 | 50.278 | 53.5045 | 23.328 |
